Source: patent publication US20260034234A1 (AGENSYS, published 2026)

Tests used:
[1] = target: T1, 191P4D12 (human, wild type, on cells) (human, UniProt Q96NY8 32-510); experiment: FACS on PC3-191P4D12 cells
T1 construct: 510 amino acid ORF expressed on PC3, RAT/Rat1(E) cells and present in cancer cell lines and tumor specimens; also called human 191P4D12; wild-type 191P4D12
T1 sequence: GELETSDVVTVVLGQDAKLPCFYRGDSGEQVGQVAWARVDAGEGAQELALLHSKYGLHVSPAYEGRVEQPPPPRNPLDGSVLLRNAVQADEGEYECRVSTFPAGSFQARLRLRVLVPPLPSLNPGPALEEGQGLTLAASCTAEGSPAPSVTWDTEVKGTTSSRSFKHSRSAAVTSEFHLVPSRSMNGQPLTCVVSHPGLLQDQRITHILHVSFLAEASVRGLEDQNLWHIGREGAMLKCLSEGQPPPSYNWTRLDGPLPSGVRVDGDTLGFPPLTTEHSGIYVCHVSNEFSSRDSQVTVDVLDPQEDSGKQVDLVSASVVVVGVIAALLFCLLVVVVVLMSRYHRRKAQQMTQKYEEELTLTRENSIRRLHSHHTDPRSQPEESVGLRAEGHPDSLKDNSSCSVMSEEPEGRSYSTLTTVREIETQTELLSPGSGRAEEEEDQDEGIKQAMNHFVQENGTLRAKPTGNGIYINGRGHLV
From the text: (§1) The 191P4D12 protein of human, cynomolgus, rat and murine origin was overexpressed recombinantly in a PC3 cell line to determine cross-reactivity of Ha22-2(2,4)6.1 to these orthologs. It was shown that Ha22-2(2,4)6.1 strongly cross-reacts with cynomolgus and rat orthologs of 191P4D12 (FIG. 23).

[2] = target: T2, Cynomolgus 191P4D12 (on PC3 cells) (cynomolgus monkey, UniProt A0A2K5WES1 32-510); experiment: FACS on PC3 cells expressing the cyno ortholog
T2 construct: also called PC3-Cynomolgus-191P4D12; Cyno ortholog
T2 sequence: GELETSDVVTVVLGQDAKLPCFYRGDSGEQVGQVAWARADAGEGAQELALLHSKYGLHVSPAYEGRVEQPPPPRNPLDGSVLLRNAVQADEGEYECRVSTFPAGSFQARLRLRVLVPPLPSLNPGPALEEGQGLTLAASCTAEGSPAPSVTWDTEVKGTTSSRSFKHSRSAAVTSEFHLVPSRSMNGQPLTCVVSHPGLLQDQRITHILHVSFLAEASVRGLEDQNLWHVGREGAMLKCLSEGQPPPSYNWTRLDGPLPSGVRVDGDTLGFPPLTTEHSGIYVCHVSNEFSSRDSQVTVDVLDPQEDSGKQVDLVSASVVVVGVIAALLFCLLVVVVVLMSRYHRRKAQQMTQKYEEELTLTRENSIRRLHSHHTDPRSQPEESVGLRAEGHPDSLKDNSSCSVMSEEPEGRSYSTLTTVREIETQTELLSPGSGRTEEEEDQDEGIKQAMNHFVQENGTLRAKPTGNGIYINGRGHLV
From the text: as §1

[3] = target: T1, 191P4D12 (human, wild type, on cells); experiment: FACS titration on PC3 cells expressing 191P4D12
[4] = target: T3, 191P4D12 (aa 1-31, 147-510), C1C2, Rat1(E) expressing line (human, UniProt Q96NY8 1-510); experiment: FACS on Rat1(E) cells expressing the C1C2 construct [Continued]
T3 construct: Deletion construct on the surface of Rat1(E) cells; also called C1C2 domain expressing cells
T3 sequence: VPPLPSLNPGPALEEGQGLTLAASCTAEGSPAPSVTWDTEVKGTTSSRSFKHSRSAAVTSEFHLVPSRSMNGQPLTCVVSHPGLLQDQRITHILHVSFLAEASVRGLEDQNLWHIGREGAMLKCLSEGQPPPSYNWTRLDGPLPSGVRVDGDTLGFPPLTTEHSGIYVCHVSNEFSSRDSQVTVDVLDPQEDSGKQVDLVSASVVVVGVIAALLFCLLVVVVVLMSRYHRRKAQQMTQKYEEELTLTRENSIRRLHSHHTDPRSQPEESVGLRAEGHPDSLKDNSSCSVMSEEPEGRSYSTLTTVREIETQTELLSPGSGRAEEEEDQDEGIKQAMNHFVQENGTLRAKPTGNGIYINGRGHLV

[5] = target: T2, Cynomolgus 191P4D12 (on PC3 cells); experiment: FACS titration on PC3 cells expressing the cynomolgus ortholog
[6] = target: T4, Murine ortholog of 191P4D12, N90S mutant (on PC3 cells) (mouse, UniProt Q8R007 31-508); experiment: FACS titration of Ha22-2(2,4)6.1 on PC3 cells expressing mouse 191P4D12 N90S
T4 construct: whole, on cells; also called murine mutant ortholog
T4 sequence (looked up): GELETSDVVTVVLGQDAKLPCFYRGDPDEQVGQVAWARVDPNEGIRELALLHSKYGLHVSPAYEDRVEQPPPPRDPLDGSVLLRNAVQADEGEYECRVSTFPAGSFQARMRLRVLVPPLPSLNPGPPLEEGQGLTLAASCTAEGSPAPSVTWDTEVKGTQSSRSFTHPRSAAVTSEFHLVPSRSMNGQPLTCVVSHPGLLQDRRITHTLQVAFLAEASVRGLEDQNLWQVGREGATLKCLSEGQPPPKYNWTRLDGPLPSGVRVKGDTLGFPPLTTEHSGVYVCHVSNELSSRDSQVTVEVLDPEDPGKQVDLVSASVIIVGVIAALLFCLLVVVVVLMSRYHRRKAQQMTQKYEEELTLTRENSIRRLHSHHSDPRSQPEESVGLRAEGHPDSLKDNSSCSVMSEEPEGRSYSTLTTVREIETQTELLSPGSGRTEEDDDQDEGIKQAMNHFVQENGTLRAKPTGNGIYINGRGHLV

EC50 [1]: 0.28 nM
EC50 [2]: 0.3 nM
EC50 (read off the curve) [3]: ~0.4 nM
binding result [4]: no binding
EC50 (read off the curve) [5]: ~0.3 nM
EC50 (read off the curve) [6]: ~0.4 nM
B1: Ha22-2(2,4)6.1 MAb (antibody, human IgG1, kappa, V domains shown)
VH: EVQLVESGGGLVQPGGSLRLSCAASGFTFSSYNMNWVRQAPGKGLEWVSYISSSSSTIYYADSVKGRFTISRDNAKNSLSLQMNSLRDEDTAVYYCARAYYYGMDVWGQGTTVTVSS
VL: DIQMTQSPSSVSASVGDRVTITCRASQGISGWLAWYQQKPGKAPKFLIYAASTLQSGVPSRFSGSGSGTDFTLTISSLQPEDFATYYCQQANSFPPTFGGGTKVEIKR
notes: Fully human IgG1 kappa from XenoMouse; Used biotinylated in the Western blot; also called 191P4D12 MAb Ha22-2(2,4)6.1; Ha22-(2,4)6.1 MAb
